B1: SUN domain-containing protein 2 (Mus musculus), Q8BJS4-3 (parent)
chain: MSRRSQRLTRYSQDDNDGGSSSSGASSVAGSQGTVFKDSPLRTLKRKSSNMKHLSPAPQLGPSSDSHTSYYSESVVRESYIGSPRAVSLARSALLDDHLHSEPYWSGDLRGRRRRGTGGSESSKANGLTAESKASEDFFGSSSGYSSEDDLAGRLFGLLYWWIGTTWYRLTTAASLLDVFVLTRSRHFSLNLKSFLWFLLLLLLLTGLTYGAWHFYPLGLQTLQPAVVSWWAAKESRKQPEVWESRDASQHFQAEQRVLSRVHSLERRLEALAADFSSNWQKEAIRLERLELRQGAAGHGGGSSLSHEDALSLLEGLVSRREATLKEDLRRDTVAHIQEELATLRAEHHQDSEDLFKKIVQASQESEARVQQLKTEWKSMTQEAFQESSVKELGRLEAQLASLRQELAALTLKQNSVADEVGLLPQKIQAARADVESQFPDWIRQFLLGDRGARSGLLQRDEMHAQLQELENKILTKMAEMQGKSAREAAASLGQILQKEGIVGVTEEQVHRIVKQALQRYSEDRIGMVDYALESGGASVISTRCSETYETKTALLSLFGIPLWYHSQSPRVILQPDVHPGNCWAFQGPQGFAVVRLSARIRPTAVTLEHVPKALSPNSTISSAPKDFAIFGFDEDLQQEGTLLGTFAYDQDGEPIQTFYFQASKMATYQVVELRILTNWGHPEYTCIYRFRVHGEPAH

Variants of: B1
Settings: with Syne2, Q6ZWQ0-1

Row | effect of a mutation on the interaction | Variant
1 | disrupting interaction strength | L400A;L403A
